PMC4227133

Target: Gal4 Cyclin T1s with a mutated Y175

B1: Hexim1, endogenous in HEK293 cells, O94992 1-359 (natural protein)
chain: MAEPFLSEYQHQPQTSNCTGAAAVQEELNPERPPGAEERVPEEDSRWQSRAFPQLGGRPGPEGEGSLESQPPPLQTQACPESSCLREGEKGQNGDDSSAGGDFPPPAEVEPTPEAELLAQPCHDSEASKLGAPAAGGEEEWGQQQRQLGKKKHRRRPSKKKRHWKPYYKLTWEEKKKFDEKQSLRASRIRAEMFAKGQPVAPYNTTQFLMDDHDQEEPDLKTGLYSKRAAAKSDDTSDDDFMEEGGEEDGGSDGMGGDGSEFLQRDFSETYERYHTESLQNMSKQELIKEYLELEKCLSRMEDENNRLRLESKRLGGDDARVRELELELDRLRAENLQLLTENELHRQQERAPLSKFGD
other: 2 fold
